Measurements published in PMC13061415 (2026).

B1: muskelin CTLH-CRA domain (205–735 Δ248–625) [rat] / Twa1 CTLH-CRA domain (58-190), wild type [mouse] (parent complex)
chain 1: EHPMLTDMHDKLVLKGDFDACEELIEKAVNDGLFNQYISQQEYPSKDYLLRHCKYLIRKHRFEEKAQMDPLSALKYLQNDLYITVDHSDPEETKEFQLLASALFKSGSDFTALGFSDVDHTYAQRTQLFDTLVNFFPDSMTPPKGNLVDLITL
chain 2: SVDLETLDERIKIREMILKGQIQEAIALINSLHPELLDTNRYLYFHLQQQHLIELIRQRETEAALEFAQTQLAEQGEESRECLTEMERTLALLAFDSPEESPFGDLLHMMQRQKVWSEVNQAVLDYENRESTP

Variants of: B1
Test: ITC; 160 µM muskelin + 16 µM Twa1 mutants; read off a plot

| dG | Variant |
| --- | --- |
| ~-8.8 kcal/mol | chain 2 A68G, chain 2 Q69R, chain 2 A73Q, chain 2 L83K, chain 2 E87K, chain 2 L90F, chain 2 F95Y, chain 2 F103V |
